Article PMC11325224, “Organophosphorus S-adenosyl-L-methionine mimetics: synthesis, stability, and substrate properties” (Frontiers in Chemistry, 2024)
Counter-ions that a name gives are not always drawn.

Key:
[1] = target: T1, WBSCR27 (Mus musculus, UniProt Q8BGM4); experiment: 1H, […] HSQC NMR titration; format: binding; conditions: 15N-labelled apo protein 0.2 mM, ligand 1:1 to 1:5; cofactor site
T1 construct: gene Mettl27; recombinant, 15N-labelled; purification details only in supplement
T1 sequence (Q8BGM4 1-238): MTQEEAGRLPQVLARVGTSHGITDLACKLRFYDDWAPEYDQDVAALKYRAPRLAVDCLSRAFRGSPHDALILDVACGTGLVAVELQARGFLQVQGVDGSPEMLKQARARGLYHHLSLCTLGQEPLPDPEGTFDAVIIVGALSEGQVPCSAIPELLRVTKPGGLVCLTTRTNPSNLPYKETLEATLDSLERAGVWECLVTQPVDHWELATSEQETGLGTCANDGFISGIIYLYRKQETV

[2] = system: T2, CI; experiment: Michaelis-Menten kinetics of SAH-PH methylation; format: biochemical, Arabidopsis thaliana; conditions: co-substrate rac-SAH-PH
T2 construct: engineered variant V140T, recombinant; expression details only in supplement

Row | 1H,15N HSQC NMR titration [1] | Compound | Km [2] [mM] | kcat [2] [s⁻¹]
1 | WBSCR27 strongly binds to SAM-P H | C[S+](CCC(N)[PH](=O)O)C[C@H]1O[C@@H](n2cnc3c(N)ncnc32)[C@H](O)[C@@H]1O (mixture of isomers) [rac-SAM-PH, 5′-{S-[3-Amino-3-(hydrohydroxyphosphoryl)propy]-S-methylthionia}-5′-deoxyadenosine hydrochloride] | – | –
2 | – | AtHMT^V140T (Arabidopsis thaliana; V140T) | 5.3 ± 3 | 0.3 ± 0.033
